{"source": "paper PMC4660055", "molecules": {"B1": {"name": "25-bp FAM-labelled DNA (FP) (dsDNA)", "DNA 1": "ATTTCTTAATATTATCCTAAGCAAG", "DNA 2": "TTGCTTAGGATAATATTAAGAAATC"}, "B2": {"name": "26-bp pmra box DNA (crystal) (dsDNA)", "DNA 1": "ATTTCTTAATATTATCCTAAGCAAGG", "DNA 2": "CTTGCTTAGGATAATATTAAGAAATC"}}, "key": {"[1]": {"molecular_target": "PmrA (double-substitution W181G/I220D variant), BeF3^−-activated (Klebsiella pneumoniae)", "test": "crystal structure; BeF3^−-activated PmrA dimer mixed 1:1 with 25-bp or 26-bp pbgP promoter DNA in 20 mM Tris-HCl pH 8.0, 100 mM NaCl, 2.65 mM BeF3^−; three copies of the complex (complex-1, -2, -3) in two crystal forms"}, "PmrA N176A": {"molecular_target": "T1, PmrA N176A (Klebsiella pneumoniae, UniProt W9BNR5 1-223, N176A)", "T1 sequence": "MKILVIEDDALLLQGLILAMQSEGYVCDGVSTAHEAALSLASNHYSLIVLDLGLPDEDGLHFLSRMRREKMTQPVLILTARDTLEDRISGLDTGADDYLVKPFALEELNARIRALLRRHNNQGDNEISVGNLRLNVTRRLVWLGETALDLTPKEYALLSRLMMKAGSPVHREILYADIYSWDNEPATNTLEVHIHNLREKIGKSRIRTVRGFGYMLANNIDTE", "test": "fluorescence polarization; BeF3-, Mg2+ (activation); FP: 10 mM sodium phosphate, 15 mM NaCl, pH 7.0, 298 K, 6 nM FAM-DNA; proteins activated with 5.3 mM BeCl2, 35 mM NaF, 7 mM MgCl2. NMR: 20 mM Tris-HCl, 100 mM Na"}, "PmrA R210A": {"molecular_target": "T2, PmrA R210A (Klebsiella pneumoniae, UniProt W9BNR5 1-223, R210A)", "T2 sequence": "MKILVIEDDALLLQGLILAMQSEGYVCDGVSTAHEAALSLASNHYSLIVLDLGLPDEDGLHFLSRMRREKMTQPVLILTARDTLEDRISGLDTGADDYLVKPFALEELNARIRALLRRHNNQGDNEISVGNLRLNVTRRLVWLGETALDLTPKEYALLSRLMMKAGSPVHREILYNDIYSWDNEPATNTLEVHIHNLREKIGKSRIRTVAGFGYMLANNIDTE", "test": "fluorescence polarization; BeF3-, Mg2+ (activation); FP: 10 mM sodium phosphate, 15 mM NaCl, pH 7.0, 298 K, 6 nM FAM-DNA; proteins activated with 5.3 mM BeCl2, 35 mM NaF, 7 mM MgCl2. NMR: 20 mM Tris-HCl, 100 mM Na"}, "[2]": {"molecular_target": "T3, PmrA (double-substitution variant) (Klebsiella pneumoniae, UniProt W9BNR5 1-223, W181G;I220D)", "T3 sequence": "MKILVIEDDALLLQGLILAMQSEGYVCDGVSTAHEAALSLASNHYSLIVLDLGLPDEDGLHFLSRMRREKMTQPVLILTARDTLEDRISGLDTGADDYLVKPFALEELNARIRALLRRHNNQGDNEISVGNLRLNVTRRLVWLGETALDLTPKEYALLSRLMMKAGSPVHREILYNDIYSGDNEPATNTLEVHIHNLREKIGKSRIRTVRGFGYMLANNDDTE", "test": "fluorescence polarization; BeF3-, Mg2+ (activation); FP: 10 mM sodium phosphate, 15 mM NaCl, pH 7.0, 298 K, 6 nM FAM-DNA; proteins activated with 5.3 mM BeCl2, 35 mM NaF, 7 mM MgCl2. NMR: 20 mM Tris-HCl, 100 mM Na"}, "PmrA N188A": {"molecular_target": "T4, PmrA N188A (Klebsiella pneumoniae, UniProt W9BNR5 1-223, N188A)", "T4 sequence": "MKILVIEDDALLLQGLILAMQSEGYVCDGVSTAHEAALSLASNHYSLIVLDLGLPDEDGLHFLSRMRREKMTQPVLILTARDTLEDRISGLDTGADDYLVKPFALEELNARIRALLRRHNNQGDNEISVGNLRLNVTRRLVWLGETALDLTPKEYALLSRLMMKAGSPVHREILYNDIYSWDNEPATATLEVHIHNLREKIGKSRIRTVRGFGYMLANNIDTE", "test": "fluorescence polarization; BeF3-, Mg2+ (activation); FP: 10 mM sodium phosphate, 15 mM NaCl, pH 7.0, 298 K, 6 nM FAM-DNA; proteins activated with 5.3 mM BeCl2, 35 mM NaF, 7 mM MgCl2. NMR: 20 mM Tris-HCl, 100 mM Na"}, "PmrA N196A": {"molecular_target": "T5, PmrA N196A (Klebsiella pneumoniae, UniProt W9BNR5 1-223, N196A)", "T5 sequence": "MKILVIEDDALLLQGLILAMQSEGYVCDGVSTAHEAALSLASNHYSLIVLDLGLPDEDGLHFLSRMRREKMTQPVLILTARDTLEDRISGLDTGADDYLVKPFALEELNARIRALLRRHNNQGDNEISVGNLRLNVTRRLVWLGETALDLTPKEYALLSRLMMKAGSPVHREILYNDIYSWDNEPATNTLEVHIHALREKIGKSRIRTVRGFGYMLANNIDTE", "test": "fluorescence polarization; BeF3-, Mg2+ (activation); FP: 10 mM sodium phosphate, 15 mM NaCl, pH 7.0, 298 K, 6 nM FAM-DNA; proteins activated with 5.3 mM BeCl2, 35 mM NaF, 7 mM MgCl2. NMR: 20 mM Tris-HCl, 100 mM Na"}, "WT-PmrA": {"molecular_target": "T6, WT-PmrA (Klebsiella pneumoniae, UniProt W9BNR5 1-223)", "T6 sequence": "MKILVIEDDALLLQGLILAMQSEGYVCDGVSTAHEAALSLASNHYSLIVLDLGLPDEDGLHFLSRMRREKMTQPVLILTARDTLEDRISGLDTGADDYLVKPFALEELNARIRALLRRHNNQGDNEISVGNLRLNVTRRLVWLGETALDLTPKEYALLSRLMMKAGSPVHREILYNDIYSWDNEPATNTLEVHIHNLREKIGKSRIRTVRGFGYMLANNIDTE", "test": "fluorescence polarization; BeF3-, Mg2+ (activation); FP: 10 mM sodium phosphate, 15 mM NaCl, pH 7.0, 298 K, 6 nM FAM-DNA; proteins activated with 5.3 mM BeCl2, 35 mM NaF, 7 mM MgCl2. NMR: 20 mM Tris-HCl, 100 mM Na"}, "[3]": {"molecular_target": "T3, PmrA (double-substitution variant)", "test": "X-ray crystallography (3.8 A); BeF3-, Mg2+; FP: 10 mM sodium phosphate, 15 mM NaCl, pH 7.0, 298 K, 6 nM FAM-DNA; proteins activated with 5.3 mM BeCl2, 35 mM NaF, 7 mM MgCl2. NMR: 20 mM Tris-HCl, 100 mM Na"}}, "data": [{"molecule": "PmrA (double-substitution W181G/I220D variant), BeF3^−-activated (natural protein)", "values": [{"measurement": "stoichiometry N", "setting": "[1]", "value": 2}]}, {"molecule": "B1", "values": [{"measurement": "Kd", "setting": "PmrA N176A", "value": "365 ± 11.6", "unit": "nM"}, {"measurement": "Kd", "setting": "PmrA R210A", "value": "3037 ± 11.7", "unit": "nM"}, {"measurement": "Kd", "setting": "[2]", "value": "201 ± 8.2", "unit": "nM"}, {"measurement": "Kd", "setting": "PmrA N188A", "value": "762 ± 12.3", "unit": "nM"}, {"measurement": "Kd", "setting": "PmrA N196A", "value": "399 ± 10.9", "unit": "nM"}, {"measurement": "Kd", "setting": "WT-PmrA", "value": "194 ± 7.7", "unit": "nM"}]}, {"molecule": "B2", "values": [{"measurement": "binding result", "setting": "[3]", "value": "binds"}]}]}
